Publication PMC3013012 (The Journal of Biological Chemistry, 2010)
Like-named read-outs stand apart in the source and are kept apart here. Square brackets hold non-standard residues; d marks the D form. Ends that are not written are not given here. Lys(Me3) = C[N+](C)(C)CCCC[C@H](N)C(=O)O

How the values were obtained:
[1] = biological target: Cbx1 chromodomain, Cbx1-(20–73) (human, UniProt P83916 20-73); test: fluorescence polarisation
[2] = biological target: T1, Cbx4 chromodomain, Cbx4-(8–65) (human, UniProt O00257 8-65); test: fluorescence polarisation
T1 sequence: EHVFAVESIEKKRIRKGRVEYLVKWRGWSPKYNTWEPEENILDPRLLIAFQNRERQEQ

[3] = biological target: Cbx5 chromodomain, Cbx5-(18–75) (human, UniProt P45973 18-75); test: fluorescence polarisation
Cbx5 chromodomain, Cbx5-(18–75), sequence (P45973 18-75): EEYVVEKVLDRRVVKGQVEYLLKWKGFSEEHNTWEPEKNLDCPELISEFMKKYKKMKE

[4] = biological target: T2, Cbx7 chromodomain, Cbx7-(8–62) (human, UniProt O95931 8-62)
T2 sequence: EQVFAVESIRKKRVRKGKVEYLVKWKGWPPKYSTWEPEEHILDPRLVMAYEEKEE

[5] = biological target: His6-tagged Cbx3 chromodomain (peptide arrays) (human, UniProt Q13185 29-81); test: peptide or protein array
His6-tagged Cbx3 chromodomain (peptide arrays), sequence (Q13185 29-81): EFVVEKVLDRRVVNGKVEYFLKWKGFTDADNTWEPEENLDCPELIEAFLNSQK

[6] = biological target: T3, Cbx8 chromodomain, Cbx8-(8–61) (human, UniProt Q9HC52 8-61)
T3 sequence: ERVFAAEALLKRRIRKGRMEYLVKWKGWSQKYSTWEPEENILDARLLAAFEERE

[7] = biological target: T4, Cbx2 chromodomain, Cbx2-(9–66) (human, UniProt Q14781 9-66); test: fluorescence polarisation
T4 sequence: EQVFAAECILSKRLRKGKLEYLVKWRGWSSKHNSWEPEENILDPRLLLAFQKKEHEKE

[8] = biological target: T5, Cbx6 chromodomain, Cbx6-(8–65) (human, UniProt O95503 8-65); test: fluorescence polarisation
T5 sequence: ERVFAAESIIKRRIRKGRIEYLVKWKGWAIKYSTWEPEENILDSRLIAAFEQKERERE

[9] = biological target: T2, Cbx7 chromodomain, Cbx7-(8–62); test: fluorescence polarisation
[10] = biological target: T3, Cbx8 chromodomain, Cbx8-(8–61); test: fluorescence polarisation
[11] = biological target: T6, His6-tagged Cbx7 chromodomain (peptide arrays) (human, UniProt O95931 8-62); test: peptide or protein array
T6 sequence: T2 sequence

Cbx1 chromodomain, Cbx1-(20–73), sequence (P83916 20-73): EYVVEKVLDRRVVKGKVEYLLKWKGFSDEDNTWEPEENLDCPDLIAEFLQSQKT

ARTKQTARKSTGGKA (trimethyllysine at 9; fluorescein on the N-terminus) [H3K9Me3 peptide (ARTKQTARK(me3)STGGKA), fluorescein-labeled]
Kd [1]: 5 µM | Kd [2]: 70 µM | Kd [3]: 30 µM

RGFAL[Lys(Me3)]STHG [SETDB1 peptide 1165-RGFALKme3STHG]
Kd [4]: 5 µM

TKQVAR[Lys(Me3)]STGGKA (also: held on a cellulose membrane through a polyethylglycol linker) [histone H3 residues 3–15, K9me3, T6V array peptide]
binding result [5]: binds

TKNTAR[Lys(Me3)]STGGKA (also: held on a cellulose membrane through a polyethylglycol linker) [histone H3 residues 3–15, K9me3, Gln-5 to Asn array peptide]
binding result [5]: binds

TKHTAR[Lys(Me3)]STGGKA (also: held on a cellulose membrane through a polyethylglycol linker) [histone H3 residues 3–15, K9me3, Gln-5 to His array peptide]
binding result [5]: binds

TKCTAR[Lys(Me3)]STGGKA (also: held on a cellulose membrane through a polyethylglycol linker) [histone H3 residues 3–15, K9me3, Gln-5 to Cys array peptide]
binding result [5]: binds

HGIAI[Lys(Me3)]STN [SETDB1 peptide HGIAIKme3STN]
Kd [4]: 5 µM | Kd [6]: 37 µM

fluorescein-QLATKTAR[Lys(Me3)]SAPATG [H3K27Me3A24T peptide (QLATKTARK(me3)SAPATG), fluorescein-labeled]
Kd [7]: 330 µM | Kd [2]: 250 µM | Kd [8]: > 500 µM | Kd [9]: 210 µM | Kd [10]: > 500 µM

QLATKAARKSAPATG (trimethyllysine at 27; fluorescein on the N-terminus) [H3K27Me3 peptide (QLATKAARK(me3)SAPATG), fluorescein-labeled]
Kd [7]: 185 µM | Kd [2]: 205 µM | Kd [8]: > 500 µM | Kd [9]: 110 µM | Kd [10]: > 500 µM

fluorescein-ARTKQAAR[Lys(Me3)]STGGKA [H3K9Me3T6A peptide (ARTKQAARK(me3)STGGKA), fluorescein-labeled]
Kd [1]: 45 µM | Kd [2]: 80 µM | Kd [9]: 140 µM

TKQTAR[Lys(Me3)]STGGKA (also: held on a cellulose membrane through a polyethylglycol linker) [histone H3 residues 3–15 with trimethylated Lys-9, membrane-immobilized array peptide]
binding result [5]: binds | binding result [11]: binds

RQVAV[Lys(Me3)]STR [SETDB1 peptide RQVAVKme3STR]
Kd [4]: 43 µM | Kd [6]: 98 µM

ATKAAR[Lys(Me3)]SAPATG (also: held on a cellulose membrane through a polyethylglycol linker) [histone H3 residues 21–33 with trimethylated Lys-27, membrane-immobilized array peptide]
binding result [11]: binds
